B1: DBE WT probe (dsDNA)
DNA 1: CTCACCGCCATTCATGAAGGGGTGGAGCCTGCCTG
DNA 2: CAGGCAGGCTCCACCCCTTCATGAATGGCGGTGAG
B2: DBE MUT probe (dsDNA)
DNA 1: CTCACCGCCGCCCATGAAGGGGTGGAGCCTGCCTG
DNA 2: CAGGCAGGCTCCACCCCTTCATGGGCGGCGGTGAG

Columns and labels:
GST = GST (UniProt P08515 P08515:2-218); experiment: EMSA; GST alone control; conditions: tags: GST alone, label: 32P end
Description: (§1) The Kpnl-D4Z4 unit plasmid, used to generate EMSA probes for the experiments shown in FIGS. 2A-2C, was kindly provided by L. Felicetti. For the EMSA experiments shown in FIG. 4, oligonucleotide probes were prepared by end-labeling double-stranded oligonucleotides covering the region of the minimal binding site. The sequences of the oligonucleotides were as follows: WT, 5′-[…]-3′ (SEQ ID NO:1); MUT, 5′-CTCACCGCCgcc[…]-3′ (SEQ ID NO:2) (mutated nucleotides are shown in italics). DNA binding reactions were carried out in 20 μl of 10 mM HEPES (pH 8), 10% glycerol, 50 mM KCl, 0.1 mM EDTA, 0.25 mM DTT, 0.1 mg/ml poly (dl-dC), 0.1 mg/ml bovine serum albumin, 20,000 cpm of radiolabeled probe. The samples were incubated for 30 minutes on ice in the presence of the indicated nuclear extract or protein fraction. For competition assays, unlabeled probes were added to the reaction mixture at the same time as the labeled probe. For supershift assays, a binding reaction was assembled in the absence of radiolabeled probe. Antibodies were added to the binding reaction and the samples were incubated 15 minutes at room temperature. Radiolabled probe was added and the samples were incubated for additional 30 minutes on ice. Reaction mixtures were loaded in the cold room onto 6% native polyacrylamide gels containing 0.5×Tris-borate-EDTA (TBE) that had been preelectrophoresed for 30 minutes at 20 mA. […]

GST-YY1 [1] = target: T1, GST-YY1 (UniProt P25490 P25490:1-414); experiment: EMSA; 50 mM KCl, pH 8, poly(dI-dC), on ice; conditions: tags: GST fusion, expressed in E. coli; label: 32P end
Description: as §1

GST-YY1 [2] = target: T1, GST-YY1; experiment: EMSA; YY1 core mutated; conditions: tags: GST fusion, expressed in E. coli; label: 32P end
Description: as §1

T1 sequence (P25490 whole entry, the tested form may be a part, one chain of several): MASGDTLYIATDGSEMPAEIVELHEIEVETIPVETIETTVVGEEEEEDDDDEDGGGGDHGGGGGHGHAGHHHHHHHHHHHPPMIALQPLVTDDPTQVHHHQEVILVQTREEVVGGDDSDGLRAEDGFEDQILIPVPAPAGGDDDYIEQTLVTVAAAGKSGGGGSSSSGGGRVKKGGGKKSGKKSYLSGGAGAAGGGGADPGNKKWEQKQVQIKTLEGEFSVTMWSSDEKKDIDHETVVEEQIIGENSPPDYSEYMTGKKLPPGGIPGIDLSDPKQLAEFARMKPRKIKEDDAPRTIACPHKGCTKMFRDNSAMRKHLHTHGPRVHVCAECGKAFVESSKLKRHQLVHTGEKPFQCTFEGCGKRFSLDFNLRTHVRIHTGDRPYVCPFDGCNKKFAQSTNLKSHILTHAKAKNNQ
Sequence of GST (P08515 2-218, one chain of several): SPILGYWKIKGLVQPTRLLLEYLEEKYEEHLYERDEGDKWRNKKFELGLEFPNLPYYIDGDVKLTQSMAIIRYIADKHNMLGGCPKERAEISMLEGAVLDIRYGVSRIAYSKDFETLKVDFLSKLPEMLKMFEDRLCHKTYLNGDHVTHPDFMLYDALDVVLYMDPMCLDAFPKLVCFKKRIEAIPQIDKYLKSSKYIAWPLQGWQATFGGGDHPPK

Binder	binding result (GST)	binding result (GST-YY1 [1])	binding result (GST-YY1 [2])
B1	no binding	binds	–
B2	–	–	no binding

From patent US20050054012, “Methods of detecting and treating facioscapulohumeral muscular dystrophy” (published 2005)
